Results as given in patent US20050287608A1 (UNIVERSITY OF MEDICINE AND DENTISTRY, published 2005).
Numbering of substitutions follows the chain as printed.

B1: Flag-Rad23 (yeast Rad23 with an amino-terminal Flag epitope) (other, yeast (Saccharomyces cerevisiae), UniProt P32628 1-398, looked up, not shown: small tags and cut ends)
chain: MVSLTFKNFKKEKVPLDLEPSNTILETKTKLAQSISCEESQIKLIYSGKVLQDSKTVSECGLKDGDQVVFMVSQKKSTKTKVTEPPIAPESATTPGRENSTEASPSTDASAAPAATAPEGSQPQEEQTATTERTESASTPGFVVGTERNETIERIMEMGYQREEVERALRAAFNNPDRAVEYLLMGIPENLRQPEPQQQTAAAAEQPSTAATTAEQPAEDDLFAQAAQGGNASSGALGTTGGATDAAQGGPPGSIGLTVEDLLSLRQVVSGNPEALAPLLENISARYPQLREHIMANPEVFVSMLLEAVGDNMQDVMEGADDMVEGEDIEVTGEAAAAGLGQGEGEGSFQVDYTPEDDQAISRLCELGFERDLVIQVYFACDKNEEAAANILFSDHAD
B2: Flag-rad23^uba1uba2 (yeast Rad23 with mutations in both UBA domains, amino-terminal Flag epitope) (other, yeast (Saccharomyces cerevisiae), UniProt P32628 1-398, looked up, not shown: small tags and cut ends)
chain: B1 chain with L183A, L392A

Target: Ub-Pro-βgal (proteolytic test substrate, ubiquitinated in yeast cells) (UniProt P00722 1-1024 = β-galactosidase, ubiquitinated in the cells (multi-Ub chains; sites not stated))
Sequence (P00722 whole entry): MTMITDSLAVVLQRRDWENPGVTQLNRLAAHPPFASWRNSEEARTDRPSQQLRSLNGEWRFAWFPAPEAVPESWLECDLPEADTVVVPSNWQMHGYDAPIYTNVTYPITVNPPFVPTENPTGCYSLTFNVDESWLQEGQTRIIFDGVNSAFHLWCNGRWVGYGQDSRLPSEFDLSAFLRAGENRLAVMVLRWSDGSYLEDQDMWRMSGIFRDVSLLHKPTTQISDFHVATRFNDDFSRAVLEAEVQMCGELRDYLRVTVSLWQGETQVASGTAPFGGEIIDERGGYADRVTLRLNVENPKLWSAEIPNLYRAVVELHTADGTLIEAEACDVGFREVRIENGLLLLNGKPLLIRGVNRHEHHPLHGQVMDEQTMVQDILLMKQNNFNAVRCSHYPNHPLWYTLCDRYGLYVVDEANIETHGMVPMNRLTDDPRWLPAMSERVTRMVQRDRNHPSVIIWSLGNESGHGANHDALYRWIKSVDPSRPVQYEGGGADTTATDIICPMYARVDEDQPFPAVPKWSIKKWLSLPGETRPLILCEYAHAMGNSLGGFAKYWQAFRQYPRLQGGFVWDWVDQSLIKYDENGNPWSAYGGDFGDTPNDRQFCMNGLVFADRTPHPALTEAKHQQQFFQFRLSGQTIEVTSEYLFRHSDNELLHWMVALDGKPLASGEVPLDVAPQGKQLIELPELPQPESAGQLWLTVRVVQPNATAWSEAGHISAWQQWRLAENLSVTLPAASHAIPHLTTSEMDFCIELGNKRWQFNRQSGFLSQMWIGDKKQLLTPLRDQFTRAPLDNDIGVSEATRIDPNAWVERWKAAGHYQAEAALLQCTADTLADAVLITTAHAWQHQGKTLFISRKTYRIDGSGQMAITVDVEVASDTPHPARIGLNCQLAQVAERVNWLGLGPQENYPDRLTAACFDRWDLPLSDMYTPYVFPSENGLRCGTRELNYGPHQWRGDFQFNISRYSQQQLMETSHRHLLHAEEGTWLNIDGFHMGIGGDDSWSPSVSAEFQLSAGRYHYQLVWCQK
Assay: cell-based or functional assay

Row | Binder | t1/2 of Ub-Pro-βgal by pulse-chase on overexpression of Flag-Rad23 in yeast [min] | t1/2 of Ub-Pro-βgal by pulse-chase on expression of Flag-rad23^uba1uba2 in yeast [min]
1 | B1 | > 100 | 
2 | B2 |  | ~10
